The text below walks through data of paper PMC5725786, “Characterization of interactions between hepatitis C virus NS5B polymerase, annexin A2 and RNA – effects on NS5B catalysis and allosteric inhibition”.

Data set [1] deals with Bovine annexin A2 engineered variant unable to bind RNA (mAnxA2) (bovine) (UniProt P04272). The data set is described as follows: SPR; AnxA2 or mAnxA2 immobilised on a CM5 chip by amine coupling, NS5B (31 to 500 nM) as analyte; multi cycle with regeneration (2 M NaCl and 2 M MgCl2); 25 °C, HBS-EP pH 7.4 with 70 uM Ca2+ and 1 mM Mg2+; approximate steady state analysis, apparent KD.

For data set [2], the target named is Bovine annexin A2 (bovine) (UniProt P04272). Described as above.
In data set [3] the target is T1, AnxA2 (annexin A2, wt) (Bos taurus (bovine), UniProt P04272 1-339). In words: SPR; kinetic 1:1 fit (ka 0.99e6 1/Ms, kd 0.002 1/s); 70 uM Ca2+, 1 mM Mg2+; AnxA2 immobilized; HBS-EP: 10 mM HEPES pH 7.4, 150 mM NaCl, 3 mM EDTA, 0.005% Surfactant P20, 70 uM Ca2+, 1 mM Mg2+, 25 °C. The following applies: protein: recombinant; single strand. (SPR reads the build-up and loss of mass on a sensor chip optically.)

In data set [4] the target is T1, AnxA2 (annexin A2, wt). The data set is described as follows: SPR; steady-state analysis; 70 uM Ca2+, 1 mM Mg2+; AnxA2 immobilized; HBS-EP: 10 mM HEPES pH 7.4, 150 mM NaCl, 3 mM EDTA, 0.005% Surfactant P20, 70 uM Ca2+, 1 mM Mg2+, 25 °C. The following applies: protein: recombinant; single strand.
The next data set addresses mAnxA2 (Bos taurus (bovine), UniProt P04272 1-339, K308S;K309S;K310S;K313S;Y317S;Q321S). The data set is described as follows: SPR; 3-100 nM RNA over immobilized mAnxA2; 70 uM Ca2+, 1 mM Mg2+; HBS-EP: 10 mM HEPES pH 7.4, 150 mM NaCl, 3 mM EDTA, 0.005% Surfactant P20, 70 uM Ca2+, 1 mM Mg2+, 25 °C. The following applies: protein: recombinant; single strand.

On to “HCV NS5B polymerase, ectodomain (NS5BΔ21), genotype 1b (enzyme)”, for which the Kd stood at 240 nM in data set [1] and 30 nM in data set [2].

Turning to GGGGAUUG (ssRNA) [8-mer RNA], the Kd with AnxA2 (annexin A2, wt) [3] amounted to 2 nM; in the data set with AnxA2 (annexin A2, wt) [4], 8.3 nM. Besides, the binding result with mAnxA2 is recorded as “no binding”.
